Measurements reported in patent US20190134089A1 (GEORGIA STATE UNIVERSITY RESEARCH FOUNDATION, published 2019).

B1: murine signal regulatory protein α (SIRPα) on macrophages (receptor, mouse, UniProt P97797 32-513, looked up)
chain: KELKVTQPEKSVSVAAGDSTVLNCTLTSLLPVGPIRWYRGVGPSRLLIYSFAGEYVPRIRNVSDTTKRNNMDFSIRISNVTPADAGIYYCVKFQKGSSEPDTEIQSGGGTEVYVLAKPSPPEVSGPADRGIPDQKVNFTCKSHGFSPRNITLKWFKDGQELHPLETTVNPSGKNVSYNISSTVRVVLNSMDVNSKVICEVAHITLDRSPLRGIANLSNFIRVSPTVKVTQQSPTSMNQVNLTCRAERFYPEDLQLIWLENGNVSRNDTPKNLTKNTDGTYNYTSLFLVNSSAHREDVVFTCQVKHDQQPAITRNHTVLGFAHSSDQGSMQTFPDNNATHNWNVFIGVGVACALLVVLLMAALYLLRIKQKKAKGSTSSTRLHEPEKNAREITQVQSLIQDTNDINDITYADLNLPKEKKPAPRAPEPNNHTEYASIETGKVPRPEDTLTYADLDMVHLSRAQPAPKPEPSFSEYASVQVQRK
notes: whole, on cells; Endogenous protein of WT mouse macrophages; In the co-immunoprecipitations it is tyrosine-phosphorylated in its cytoplasmic ITIMs (SIRPα pY); also called murine SIRPα; surface signal regulatory protein α
B2: mCD47-AP, soluble murine CD47 extracellular domain fusion protein (other, mouse, UniProt Q61735 19-140, looked up, not shown: large carriers)
chain: QLLFSNVNSIEFTSCNETVVIPCIVRNVEAQSTEEMFVKWKLNKSYIFIYDGNKNSTTTDQNFTSAKISVSDLINGIASLKMDKRDAMVGNYTCEVTELSREGKTVIELKNRTVSWFSPNEK
notes: extracellular domain

What was measured:
[1] = target: T1, SHP-1 (SH2-containing tyrosine phosphatase) of mouse macrophages (mouse, UniProt P29351 1-595, limits assumed); assay: SIRPα immunoprecipitation from LPS- or IL-17-treated WT PEM lysates, WB for SHP-1
T1 construct: Detected by Western blot in SIRPα immunoprecipitates
T1 sequence (P29351 whole entry): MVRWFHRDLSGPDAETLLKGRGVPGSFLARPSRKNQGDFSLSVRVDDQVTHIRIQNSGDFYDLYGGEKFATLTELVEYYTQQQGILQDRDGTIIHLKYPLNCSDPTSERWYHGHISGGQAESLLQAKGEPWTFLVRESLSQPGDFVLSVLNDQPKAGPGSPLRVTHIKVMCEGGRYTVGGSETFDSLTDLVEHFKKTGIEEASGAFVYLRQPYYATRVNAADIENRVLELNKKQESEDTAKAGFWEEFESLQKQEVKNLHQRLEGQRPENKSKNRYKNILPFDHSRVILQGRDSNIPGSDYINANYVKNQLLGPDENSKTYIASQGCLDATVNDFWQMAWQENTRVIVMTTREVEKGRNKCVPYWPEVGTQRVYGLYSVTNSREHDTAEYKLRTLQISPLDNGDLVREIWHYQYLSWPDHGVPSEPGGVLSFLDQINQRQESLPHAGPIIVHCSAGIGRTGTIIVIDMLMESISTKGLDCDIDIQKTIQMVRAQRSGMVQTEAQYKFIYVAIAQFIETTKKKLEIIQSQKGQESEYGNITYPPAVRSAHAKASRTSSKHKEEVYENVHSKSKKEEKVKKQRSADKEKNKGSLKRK
Experimental: FIGS. 4A-4E include data related to our experiments on macrophage phagocytic plasticity. FIG. 4A is a panel of illustrative line graphs showing that IL-10 inhibits macrophage phagocytosis toward “self.” PEMs were treated with LPS and activating cytokines along with various concentrations of IL-10 before testing their ability to phagocytose RBCs. FIG. 4B illustrates the phagocytic plasticity of WT red pulp macrophages. […] Treatments of cultured macrophages with LPS and IL-17 re-elicited their phagocytosis toward RBCs. […] Error bars are ±SEM. ***P<0.001 vs. freshly isolated splenic macrophages. FIG. 4D includes microscopic images of RBC phagocytosis by LPS- and IL-17-treated splenic macrophages. […] WT PEMs treated with LPS or IL-17 were further treated with Cd47⁺ RBCs or Cd47-AP (10 min, 37° C.) followed by cell lysis, SIRPα immunoprecipitation, and WB detection of SIRPα phosphorylation (SIRPα^pY) and SHP-1 association. Data presented in each panel represent at least three independent experiments with n≥4, if applicable.

[2] = target: B1; assay: note on the reagent used to ligate SIRPα on WT macrophages (FIG. 10)

| Binder | binding result [1] | binding result [2] |
| --- | --- | --- |
| B1 | binds | – |
| B2 | – | binds |
